# From patent publication US20230037815A1
# Biological target: cynomolgus CD19 (cynomolgus)
# Test: Octet HTX (ForteBio), IgG on AHC sensor, 1:1 fit
Binder,Kd [nM],koff [s⁻¹]
"CNG-CD19-703 (antibody, V domains shown) VH: QVQLQESGPGLVKPSQTLSLTCTVSGGSISTSTMGVGWIRQHPGKGLEWIGFIWWDDDKRYNPNLKSRVTMSVDTSKNQFSLKLSSVTAADTAVYYCARMELWSYYFEYWGQGTLVTVSS VL: EIVLTQSPATLSLSPGERATLSCSASSSVSYMHWYQQKPGQAPRLLIYDTSKLASGIPARFSGSGSGTDFTLTISSLEPEDFAVYYCFQGSVYPFTFGQGTKLEIK",2.54,0.000352
"CNG-CD19-706 (antibody, V domains shown) VH: QVQLQESGPGLVKPSQTLSLTCTVSGGSIASGMGVSWIRQHPGKGLEWIGHIWWDDDKRYNPALKSRVTISVDTSKNQFSLKLSSVTAADTAVYYCARMELWSYYFDPWGQGTLVTVSS VL: EIVLTQSPATLSLSPGERATLSCSASSSVGYMHWYQQKPGQAPRLLIYDTSKLASGIPARFSGSGSGTDFTLTISSLEPEDFAVYYCFQGSVYPFTFGQGTKLEIK",0.372,0.00012
"CNG-CD19-710 (antibody, V domains shown) VH: QVQLQESGPGLVKPSQTLSLTCTVSGVSISTSSMGVGWIRQHPGKGLEWIGHAWWDDDKRYNPALKSRVTISVDTSKNQFSLKLSSVTAADTAVYYCARMELWSYYFDPWGQGTLVTVSS VL: EIVLTQSPATLSLSPGERATLSCSASSSFSYMHWYQQKPGQAPRLLIYDTSKLASGIPARFSGSGSGTDFTLTISSLEPEDFAVYYCFQGSVYPFTFGQGTKLEIK",1.54,0.000328
"CNG-CD19-709 (antibody, V domains shown) VH: QVQLQESGPGLVKPSQTLSLTCTVSGGSISTSTMGVGWIRQHPGKGLEWIGFIWWDDDKRYNPNLKSRVTMSVDTSKNQFSLKLSSVTAADTAVYYCARMELWSYYFDPWGQGTLVTVSS VL: EIVLTQSPATLSLSPGERATLSCSASSSVGYMHWYQQKPGQAPRLLIYDTSKLAFGIPARFSGSGSGTDFTLTISSLEPEDFAVYYCFQGSVYPFTFGQGTKLEIK",0.639,0.000168
"CNG-CD19-704 (antibody, V domains shown) VH: QVQLQESGPGLVKPSQTLSLTCTVSGGSIASGMGVGWIRQHPGKGLEWIGHIWWDDDKRYNPALKSRVTISVDTSKNQFSLKLSSVTAADTAVYYCARMELWSYYFDGWGQGTLVTVSS VL: EIVLTQSPATLSLSPGERATLSCSASSSVSYMHWYQQKPGQAPRLLIYDTSKLASGIPARFSGSGSGTDFTLTISSLEPEDFAVYYCFQGSVYPFTFGQGTKLEIK",1.24,0.000194
"CNG-CD19-707 (antibody, V domains shown) VH: QVQLQESGPGLVKPSQTLSLTCTVSGGSISTSTMGVGWIRQHPGKGLEWIGFIWWDDDKRYNPNLKSRVTMSVDTSKNQFSLKLSSVTAADTAVYYCARMELWSYYFDPWGQGTLVTVSS VL: EIVLTQSPATLSLSPGERATLSCSASSSVGYMHWYQQKPGQAPRLLIYDTSKLASGIPARFSGSGSGTDFTLTISSLEPEDFAVYYCFQGSVYPFTFGQGTKLEIK",0.738,0.000207
"CNG-CD19-7 (antibody, V domains shown) VH: QVQLQESGPGLVKPSQTLSLTCTVSGGSISTSGMGVGWIRQHPGKGLEWIGHIWWDDDKRYNPALKSRVTISVDTSKNQFSLKLSSVTAADTAVYYCARMELWSYYFDYWGQGTLVTVSS VL: EIVLTQSPATLSLSPGERATLSCSASSSVSYMHWYQQKPGQAPRLLIYDTSKLASGIPARFSGSGSGTDFTLTISSLEPEDFAVYYCFQGSVYPFTFGQGTKLEIK",8.43,0.000832
"CNG-CD19-708 (antibody, V domains shown) VH: QVQLQESGPGLVKPSQTLSLTCTVSGGSISTSTMGVGWIRQHPGKGLEWIGFIWWDDDKRYNPNLKSRVTMSVDTSKNQFSLKLSSVTAADTAVYYCARMELWSYYFDPWGQGTLVTVSS VL: EIVLTQSPATLSLSPGERATLSCSASSSVGYMHWYQQKPGQAPRLLIYDTSKLSSGIPARFSGSGSGTDFTLTISSLEPEDFAVYYCFQGSVYPFTFGQGTKLEIK",1.02,0.000223
"CNG-CD19-705 (antibody, V domains shown) VH: QVQLQESGPGLVKPSQTLSLTCTVSGGSISTSGMGVGWIRQHPGKGLEWIGHIWWDDDKRYNPALKSRVTISVDTSKNQFSLKLSSVTAADTAVYYCARMELWSYYFDYWGQGTLVTVSS VL: EIVLTQSPATLSLSPGERATLSCSASSSVGYMHWYQQKPGQAPRLLIYDTSSLASGIPARFSGSGSGTDFTLTISSLEPEDFAVYYCFQGSVYPFTFGQGTKLEIK",6.02,0.000837
"CNG-CD19-701 (antibody, V domains shown) VH: QVQLQESGPGLVKPSQTLSLTCTVSGGSISTSTMGVGWIRQHPGKGLEWIGFIWWDDDKRYNPNLKSRVTMSVDTSKNQFSLKLSSVTAADTAVYYCARMELWSYYFDYWGQGTLVTVSS VL: EIVLTQSPATLSLSPGERATLSCSASSSVGYMHWYQQKPGQAPRLLIYDTSKLASGIPARFSGSGSGTDFTLTISSLEPEDFAVYYCFQGSVYPFTFGQGTKLEIK",0.668,0.000168
"CNG-CD19-102 (antibody, V domains shown) VH: QVQLVQSGAEVKKPGASVKVSCKASGYEFTDYIMHWVRQAPGQGLEWMGYINPYNDGSKYTEKFQPRVTMTSDTSISTAYMELSRLRSDDTAVYYCARGTYYYGPQLFDYWGQGTTVTVSS VL: DIVMTQTPLSLSVTPGQPASISCKSSQSLETSTGTTYLNWYLQKPGQSPQLLIYRVSKRFSGVPDRFSGSGSGTDFTLKISRVEAEDVGVYYCLQLLEDPYTFGQGTKLEIK",12.1,0.00218
"CNG-CD19-104 (antibody, V domains shown) VH: QVQLVQSGAEVKKPGASVKVSCKASGYDFTDYIVHWVRQAPGQGLEWMGYINPYNDGSKYTEKFQGRVTMTSDTSISTAYMELSRLRSDDTAVYYCARGTYYYGPELFDYWGQGTTVTVSS VL: DIVMTQTPLSLSVTPGQPASISCKSGQSLETSTGTTYLNWYLQKPGQSPQLLIYRVSRRFSGVPDRFSGSGSGTDFTLKISRVEAEDVGVYYCLQLLEDPYTFGQGTKLEIK",5.83,0.00148
"CNG-CD19-101 (antibody, V domains shown) VH: QVQLVQSGAEVKKPGASVKVSCKASGYDFTDYIMHWVRQAPGQGLEWMGYINPYNDGSKYTDKFQERVTMTSDTSISTAYMELSRLRSDDTAVYYCARGTYYYGPELFDYWGQGTTVTVSS VL: DIVMTQTPLSLSVTPGQPASISCKSSQSLETTTGTTYLNWYLQKPGQSPQLLIYRASKRFSGVPDRFSGSGSGTDFTLKISRVEAEDVGVYYCLQLLEDPYTFGQGTKLEIK",9.91,0.00233
"CNG-CD19-106 (antibody, V domains shown) VH: QVQLVQSGAEVKKPGASVKVSCKASGYDFTDYIMHWVRQAPGQGLEWMGYINPYNDGSEYTEKFQGRVTMTSDTSISTAYMELSRLRSDDTAVYYCARGTYYYGPQLFDYWGQGTTVTVSS VL: DIVMTQTPLSLSVTPGQPASISCKSSQSLETATGTTYLNWYLQKPGQSPQLLIYRVSRRFSGVPDRFSGSGSGTDFTLKISRVEAEDVGVYYCLQLLEDPYTFGQGTKLEIK",3.2,0.00123
"CNG-CD19-103 (antibody, V domains shown) VH: QVQLVQSGAEVKKPGASVKVSCKASGYTFTDYIMHWVRQAPGQGLEWMGYINPYNDGSKYTEKFQGRVTMTSDTSISTAYMELSRLRSDDTAVYYCARGTYYYGPQLFDYWGQGTTVTVSS VL: DIVMTQTPLSLSVTPGQPASISCKSSQSLETATGTTYLNWYLQKPGQSPQLLIYRVSRRFSGVPDRFSGSGSGTDFTLKISRVEAEDVGVYYCLQLLEDPYSFGQGTKLEIK",4.69,0.00109
"CNG-CD19-1 (antibody, V domains shown) VH: QVQLVQSGAEVKKPGASVKVSCKASGYTFTDYIMHWVRQAPGQGLEWMGYINPYNDGSKYTEKFQGRVTMTSDTSISTAYMELSRLRSDDTAVYYCARGTYYYGPQLFDYWGQGTTVTVSS VL: DIVMTQTPLSLSVTPGQPASISCKSSQSLETSTGTTYLNWYLQKPGQSPQLLIYRVSKRFSGVPDRFSGSGSGTDFTLKISRVEAEDVGVYYCLQLLEDPYTFGQGTKLEIK",9.39,0.00191
"CNG-CD19-108 (antibody, V domains shown) VH: QVQLVQSGAEVKKPGASVKVSCKASGYDFTDYIVHWVRQAPGQGLEWMGYINPYNDGSKYTEKFQGRVTMTSDTSISTAYMELSRLRSDDTAVYYCARGTYYYGPQLFDYWGQGTTVTVSS VL: DIVMTQTPLSLSVTPGQPASISCKSSQSLETVTGTTYLNWYLQKPGQSPQLLIYRVSKRFSGVPDRFSGSGSGTDFTLKISRVEAEDVGVYYCLQLLEDPPTFGQGTKLEIK",2.25,0.00065
"CNG-CD19-107 (antibody, V domains shown) VH: QVQLVQSGAEVKKPGASVKVSCKASGYDFTDYIMHWVRQAPGQGLEWMGYINPYNDGSKYTEKFQHRVTMTSDTSISTAYMELSRLRSDDTAVYYCARGTYYYGPQLFDYWGQGTTVTVSS VL: DIVMTQTPLSLSVTPGQPASISCKSSQSLETSTGTTYLNWYLQKPGQSPQLLIYRVSRRFSGVPDRFSGSGSGTDFTLKISRVEAEDVGVYYCLQLLEDPYTFGQGTKLEIK",5.64,0.00129
"CNG-CD19-110 (antibody, V domains shown) VH: QVQLVQSGAEVKKPGASVKVSCKASGYTFTDYIMHWVRQAPGQGLEWMGYINPYNDGSKYTEKFQGRVTMTSDTSISTAYMELSRLRSDDTAVYYCARGTYYYGPQLFDYWGQGTTVTVSS VL: DIVMTQTPLSLSVTPGQPASISCKSSQSLETSTGTTYLNWYLQKPGQSPQLLIYRSSKRFSGVPDRFSGSGSGTDFTLKISRVEAEDVGVYYCLQLLEDPPTFGQGTKLEIK",6.17,0.00164
"CNG-CD19-109 (antibody, V domains shown) VH: QVQLVQSGAEVKKPGASVKVSCKASGYDFTDYIVHWVRQAPGQGLEWMGYINPYNDGSLYTEKFQGRVTMTSDTSISTAYMELSRLRSDDTAVYYCARGTYYYGPQLFDYWGQGTTVTVSS VL: DIVMTQTPLSLSVTPGQPASISCKSSQQLETSTGTTYLNWYLQKPGQSPQLLIYRASKRFSGVPDRFSGSGSGTDFTLKISRVEAEDVGVYYCLQLLEDPYSFGQGTKLEIK",4.03,0.00131
"CNG-CD19-105 (antibody, V domains shown) VH: QVQLVQSGAEVKKPGASVKVSCKASGYEFTDYIMHWVRQAPGQGLEWMGYINPYNDGSKYTEKFEGRVTMTSDTSISTAYMELSRLRSDDTAVYYCARGTYYYGPELFDYWGQGTTVTVSS VL: DIVMTQTPLSLSVTPGQPASISCKSSQRLETSTGTTYLNWYLQKPGQSPQLLIYRVSRRFSGVPDRFSGSGSGTDFTLKISRVEAEDVGVYYCLQLLEDPPTFGQGTKLEIK",2.24,0.000679
